The text below walks through data of patent US20200255508A1 (AbbVie / Abbott, published 2020).

As usually defined, the IC50 is the concentration that inhibits the measured activity by half. One may read the Kd as the constant that tells how readily two partners part at equilibrium. What is called koff is the rate constant with which the complex falls apart. The term kon denotes the second-order rate constant of association. Broadly, the EC50 is the concentration giving half of the maximal effect.

Assay [1] deals with T1, human DLL4 on the cell surface (human, UniProt Q9NR61 27-685).
T1 construct: whole, on cells; also called HEK293-hDLL4; hDLL4-293G
Description: competition FACS, competitor huNotch-1.
Description: (§1) Notch blocking assay: Briefly, stable cell lines overexpressing cell-surface DLL4 were harvested from tissue culture flasks and re-suspended in phosphate buffered saline (PBS) containing 1% bovine serum albumin and 1 mM CaCl₂ (FACS buffer). HEK293-hDLL4 or HEK293-mDLL4 cells were dispensed into 96-well plate (v-bottom) at 1.5×10⁵ cells/well in FACS buffer. […] After washing the cells two times with FACS buffer, 50 μL of R-phycoerythrin-conjugated streptavidin (1:150 dilution in FACS buffer) (Jackson ImmunoResearch, West Grove, Pa., US, catalog no. 016-110-084) were added. Following an incubation on ice (4° C., 60 minutes), cells were washed three times and resuspended in FACS buffer. Fluorescence was measured using a Becton Dickinson FACSCalibur-HTS (Becton Dickinson, San Jose. Calif.).

The target of assay [2] is T2, mouse DLL4 on the cell surface (mouse, UniProt Q9JI71 27-686).
T2 construct: whole, on cells; also called HEK293-mDLL4; mDLL4-293G
T2 sequence (Q9JI71 27-686): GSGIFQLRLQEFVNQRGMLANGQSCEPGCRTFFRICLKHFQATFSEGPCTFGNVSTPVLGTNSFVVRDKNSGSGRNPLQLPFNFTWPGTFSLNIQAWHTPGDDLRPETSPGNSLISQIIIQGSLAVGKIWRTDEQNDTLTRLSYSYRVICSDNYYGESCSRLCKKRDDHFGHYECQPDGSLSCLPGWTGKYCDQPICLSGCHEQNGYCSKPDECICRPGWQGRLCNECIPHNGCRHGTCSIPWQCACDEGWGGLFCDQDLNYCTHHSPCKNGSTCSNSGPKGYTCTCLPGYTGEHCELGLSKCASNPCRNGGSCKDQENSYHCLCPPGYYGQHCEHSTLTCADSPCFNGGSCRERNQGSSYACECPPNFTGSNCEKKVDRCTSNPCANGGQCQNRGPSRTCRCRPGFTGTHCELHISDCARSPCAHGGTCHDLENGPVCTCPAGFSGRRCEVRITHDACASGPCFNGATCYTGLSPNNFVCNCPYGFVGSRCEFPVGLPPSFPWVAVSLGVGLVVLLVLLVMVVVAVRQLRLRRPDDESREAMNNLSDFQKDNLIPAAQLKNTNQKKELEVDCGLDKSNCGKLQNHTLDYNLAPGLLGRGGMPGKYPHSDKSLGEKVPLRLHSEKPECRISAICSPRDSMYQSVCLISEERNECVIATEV
The assay is described as follows: competition FACS, competitor huNotch-1.
Description: as §1

The target in assay [3] is T1, human DLL4 on the cell surface. The assay is described as follows: cell-based or functional assay.
Assay [4] concerns the target T3, mouse DLL4 extracellular domain (mouse, UniProt Q9JI71 27-532).
T3 construct: extracellular domain; also called muDLL4 ECD; Mouse DLL4 ECD
The assay is described as follows: Biacore SPR.
Description: (§2) Binding of DLL4 antibodies to a purified recombinant DLL4 extracellular domain is determined by surface plasmon resonance-based measurements with a Biacore® instrument (either a Biacore 2000, Biacore 3000, or Biacore T100, GE Healthcare, Piscataway, N.J. US) using running buffer HBS-EPB (10 mM HEPES [pH 7.4], 150 mM NaCl, 3 mM EDTA, 0.1 mg/ml BSA and 0.005% surfactant P20) at 25° C. For example, approximately 9000 RU of goat anti-human Fc specific polyclonal antibody (Thermo Fisher Scientific Inc., Rockford, Ill., US) diluted in 10 mM sodium acetate (pH 4.5) is directly immobilized across a CM5 research grade biosensor chip using a standard amine coupling kit according to manufacturer's instructions and procedures at 25 μg/ml. Unreacted moieties on the biosensor surface are blocked with ethanolamine. For kinetic analysis, rate equations derived from the 1:1 Langmuir binding model are fitted simultaneously to multiple antigen injections (using global fit analysis) with the use of Scrubber 2 (BioLogic Software). […] The equilibrium dissociation constant KD (M) of the reaction between antibodies and the target antigen is then calculated from the kinetic rate constants by the following formula: KD=Koff/Kₒₙ. Binding is recorded as a function of time and kinetic rate constants are calculated. In this assay, on-rates as fast as 10⁶ M⁻¹s⁻¹ and off-rates as slow as 10⁻⁶ s⁻¹ can be measured.

Assay [5] addresses T4, human DLL4 extracellular domain (human, UniProt Q9NR61 27-529).
T4 construct: extracellular domain; coated on plates in the sVEGFR1 assay; also called huDLL4 ECD; Human DLL4 ECD
Description: Biacore SPR. On the technique in general: SPR reads the build-up and loss of mass on a sensor chip optically.
Description: as §2

Assay [6] concerns the target T3, mouse DLL4 extracellular domain. The assay is described as follows: competition ELISA, competitor huNotch-1. In general terms: An ELISA detects its analyte on a solid surface through an enzyme-linked reagent.
Description: (§3) Plates were then washed 3 times with wash buffer (PBS, 0.05% Tween-20) and blocked with 200 μl/well blocking buffer (D-PBS, 1% BSA, 1 mM CaCl₂, 0.05% Tween-20) for 1 hour at 25° C. […] Assay plates were washed after blocking, and incubated with DLL4/antibody mixtures (100 μl/well, 1 hour at 25° C. with shaking). […] After a final wash, plates were developed using 100 μl/well substrate (TMB Sigma # T8665), and the reaction was stopped after an 8-minute incubation at 25° C. (for muDLL4 ELISA) and after 20 minute incubation at 25° C. (for huDLL4 ELISA) using 100 μl/well 1N HCl, and the absorbance was read at 450 nm.
The target of assay [7] is T4, human DLL4 extracellular domain. The assay is described as follows: competition ELISA, competitor huNotch-1.
Description: as §3
Assay [8] concerns the target T1, human DLL4 on the cell surface. Description: FACS on DLL4 cells.
The target of assay [9] is T2, mouse DLL4 on the cell surface. The assay is described as follows: FACS on DLL4 cells.
Assay [10] addresses T3, mouse DLL4 extracellular domain. The assay is described as follows: capture ELISA.
Description: (§4) ELISA plates were washed 3 times with wash buffer (PBS, 0.05% Tween-20) and then blocked with 200 ml/well blocking buffer (D-PBS, 1% BSA, 1 mM CaCl₂, 0.05% Tween-20) for 1 hour at 25° C. Plates were washed 3 times and incubated with 100 μl/well DLL4 antibodies (0.0001-100 nM, 10-fold serial dilution in blocking buffer) for 1 hour at 25° C., and then washed again 3 times. […] The reaction was stopped after 2 minutes at 25° C. with 100 μl/well 2 N H2SO₄ and the absorbance was read at 450 nm. Data were analyzed using Graphpad Prism software and EC₅₀ values were reported.
Assay [11] deals with T4, human DLL4 extracellular domain. The assay is described as follows: capture ELISA.
Description: as §4
Assay [12] has as its target T5, mouse DLL4-his (mouse, UniProt Q9JI71 27-532).
T5 construct: extracellular domain; not shown: his tag
The assay is described as follows: ELISA on DLL4-his.

Assay [13] deals with T6, human DLL4-his (human, UniProt Q9NR61 27-529).
T6 construct: extracellular domain
The assay is described as follows: ELISA on DLL4-his.
Description: (§5) After the final wash, plates were incubated with 100 μl/well ELISA substrate (Sigma # T8665). The reaction was stopped after 8 minutes at 25° C. with 100 μl/well 1N HCl and the absorbance was read at 450 nm. Data were analyzed using Graphpad Prism software and EC50 values were reported.

Assay [14] addresses T3, mouse DLL4 extracellular domain. The assay is described as follows: Biacore SPR. This is another data set of the same source.
Description: (§6) The BIACORE® surface plasmon resonance assay (Biacore, Inc., Piscataway, N.J., US) determines the affinity of antibodies with kinetic measurements of on-rate and off-rate constants. Binding of DLL4 antibodies to a purified recombinant DLL4 extracellular domain is determined by surface plasmon resonance-based measurements with a Biacore® instrument (either a Biacore 2000, Biacore 3000, or Biacore T100, GE Healthcare, Piscataway, N.J. US) using running buffer HBS-EPB (10 mM HEPES [pH 7.4], 150 mM NaCl, 3 mM EDTA, 0.1 mg/ml BSA and 0.005% surfactant P20) at 25° C. For example, approximately 9000 RU of goat anti-human Fc specific polyclonal antibody (Thermo Fisher Scientific Inc., Rockford, Ill., US) diluted in 10 mM sodium acetate (pH 4.5) is directly immobilized across a CM5 research grade biosensor chip using a standard amine coupling kit according to manufacturer's instructions and procedures at 25 μg/ml. Unreacted moieties on the biosensor surface are blocked with ethanolamine. For kinetic analysis, rate equations derived from the 1:1 Langmuir binding model are fitted simultaneously to multiple antigen injections (using global fit analysis) with the use of Scrubber 2 (BioLogic Software). […] The equilibrium dissociation constant KD (M) of the reaction between antibodies and the target antigen is then calculated from the kinetic rate constants by the following formula: KD=Koff/Kₒₙ. Binding is recorded as a function of time and kinetic rate constants are calculated. In this assay, on-rates as fast as 10⁶ M⁻¹s⁻¹ and off-rates as slow as 10⁻⁶ s⁻¹ can be measured.
The target of assay [15] is T4, human DLL4 extracellular domain. The assay is described as follows: Biacore SPR. The source holds these as a separate data set.
Description: as §6
Assay [16] addresses T3, mouse DLL4 extracellular domain. The assay is described as follows: Biacore SPR. This is another data set of the same source.
Description: as §6
Assay [17] deals with T4, human DLL4 extracellular domain. The assay is described as follows: Biacore SPR. The source holds these as a separate data set.
Description: as §6
Assay [18] concerns the target T3, mouse DLL4 extracellular domain. The assay is described as follows: competition ELISA, competitor huNotch-1. The source holds these as a separate data set.
Description: as §3
Assay [19] deals with T4, human DLL4 extracellular domain. The assay is described as follows: competition ELISA, competitor huNotch-1. This is another data set of the same source.
Description: as §3
Assay [20] addresses T3, mouse DLL4 extracellular domain. Description: competition ELISA, competitor huNotch-1. This is another data set of the same source.
Description: as §3
Assay [21] has as its target T4, human DLL4 extracellular domain. Description: competition ELISA, competitor huNotch-1. The source holds these as a separate data set.
Description: as §3
In assay [22] the target is T1, human DLL4 on the cell surface. The assay is described as follows: FACS on DLL4 cells. The source holds these as a separate data set.
Description: (§7) Stable cell lines overexpressing cell-surface DLL4 were harvested from tissue culture flasks, washed four times and resuspended in phosphate buffered saline (PBS) containing 1% bovine serum albumin and 1 mM CaCl₂ (FACS buffer), 1.5×10³ cells were incubated with antibodies at various concentrations in FACS buffer for 60 minutes on ice. Cells were washed twice and 50 μL of R-phycoerythrin-conjugated anti-rat IgG. […] Following an incubation on ice (4° C., 60 minutes), cells were washed three times and resuspended in FACS buffer. Fluorescence was measured using a Becton Dickinson FACSCalibur-HTS (Becton Dickinson, San Jose. Calif., US). Data were analyzed using Graphpad Prism software and EC₅₀ values were reported as the concentration of antibody to achieve 50% of maximal DLL4 antibodies binding to DLL4 expressing cells.
The target of assay [23] is T2, mouse DLL4 on the cell surface. The assay is described as follows: FACS on DLL4 cells. This is another data set of the same source.
Description: as §7
Assay [24] concerns the target T1, human DLL4 on the cell surface. Description: competition FACS, competitor huNotch-1. This is another data set of the same source.
Description: as §1
Assay [25] has as its target T2, mouse DLL4 on the cell surface. The assay is described as follows: competition FACS, competitor huNotch-1. The source holds these as a separate data set.
Description: as §1
Assay [26] shares this target. Description: FACS on DLL4 cells (*historic data).
In assay [27] the target is T5, mouse DLL4-his. The assay is described as follows: ELISA on DLL4-his. The source holds these as a separate data set.
Description: as §5
For assay [28], the target named is T6, human DLL4-his. The assay is described as follows: ELISA on DLL4-his. This is another data set of the same source.
Description: as §5
For assay [29], the target named is T1, human DLL4 on the cell surface. Description: competition FACS, competitor huNotch-1. This is another data set of the same source.
Description: as §1
In assay [30] the target is T2, mouse DLL4 on the cell surface. Description: competition FACS, competitor huNotch-1. The source holds these as a separate data set.
Description: as §1
Assay [31] has as its target T1, human DLL4 on the cell surface. The assay is described as follows: FACS on DLL4 cells. The source holds these as a separate data set.
Description: as §7
For assay [32] the target is unchanged. Description: FACS on DLL4 cells. This is another data set of the same source.
Description: as §7
The target of assay [33] is T3, mouse DLL4 extracellular domain. Description: Biacore SPR. This is another data set of the same source.
Description: as §2
The target of assay [34] is T7, rat DLL4 extracellular domain (rat, UniProt D3ZHH1 28-530).
T7 construct: extracellular domain; also called ratDLL4 ECD
T7 sequence (D3ZHH1 28-530): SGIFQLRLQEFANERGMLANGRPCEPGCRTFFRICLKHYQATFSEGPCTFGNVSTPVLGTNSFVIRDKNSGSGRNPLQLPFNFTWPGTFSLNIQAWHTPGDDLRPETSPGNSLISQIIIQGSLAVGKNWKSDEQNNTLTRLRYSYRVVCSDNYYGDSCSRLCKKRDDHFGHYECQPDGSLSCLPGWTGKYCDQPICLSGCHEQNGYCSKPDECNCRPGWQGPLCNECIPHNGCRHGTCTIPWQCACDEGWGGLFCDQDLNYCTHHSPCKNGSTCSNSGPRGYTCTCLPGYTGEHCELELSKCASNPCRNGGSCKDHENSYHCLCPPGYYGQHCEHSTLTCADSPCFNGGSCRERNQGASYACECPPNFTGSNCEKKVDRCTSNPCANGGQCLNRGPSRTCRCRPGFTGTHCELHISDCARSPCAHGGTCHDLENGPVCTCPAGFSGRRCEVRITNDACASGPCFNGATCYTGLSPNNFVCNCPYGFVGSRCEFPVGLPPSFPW
The assay is described as follows: Biacore SPR.
Description: as §2

Assay [35] has as its target T4, human DLL4 extracellular domain. Description: Biacore SPR. The source holds these as a separate data set.
Description: as §2
Assay [36] shares this target. The assay is described as follows: capture ELISA. This is another data set of the same source.
Description: as §4
Assay [37] has the same target. Description: competition ELISA, competitor huNotch-1. This is another data set of the same source.
Description: as §3
In assay [38] the target is T1, human DLL4 on the cell surface. Description: cell-based or functional assay. This is another data set of the same source.
The target of assay [39] is T4, human DLL4 extracellular domain. Description: cell-based or functional assay.
In assay [40] the target is T1, human DLL4 on the cell surface. The assay is described as follows: competition FACS, competitor huNotch-1. The source holds these as a separate data set.
Description: as §1

Positions count from the first letter of the chain named. Where two headings read alike, the source gives them in different places.

T3 sequence (Q9JI71 27-532): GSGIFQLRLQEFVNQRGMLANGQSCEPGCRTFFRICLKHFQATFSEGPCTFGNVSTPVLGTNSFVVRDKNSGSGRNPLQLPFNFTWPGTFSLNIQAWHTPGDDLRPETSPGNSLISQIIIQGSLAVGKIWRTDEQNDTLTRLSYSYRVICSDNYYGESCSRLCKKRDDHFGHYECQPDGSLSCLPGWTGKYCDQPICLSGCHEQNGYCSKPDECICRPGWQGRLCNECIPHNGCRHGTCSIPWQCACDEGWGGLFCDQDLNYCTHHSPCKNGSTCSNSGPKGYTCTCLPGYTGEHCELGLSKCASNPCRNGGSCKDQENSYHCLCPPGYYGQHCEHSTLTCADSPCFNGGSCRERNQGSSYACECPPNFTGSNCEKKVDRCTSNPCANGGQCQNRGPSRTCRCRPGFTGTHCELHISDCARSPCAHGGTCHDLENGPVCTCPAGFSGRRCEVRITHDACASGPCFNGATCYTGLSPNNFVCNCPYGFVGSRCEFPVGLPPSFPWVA
T5 sequence (Q9JI71 27-532): as above

B1: E9.19 (antibody, V domains shown)
VH: EVQLQESGPGLVKPSETLSLTCTVSGGSISSSSYYWGWIRQPPGKGLEWIGDIYYTGSTYYNPSLKSRVTISVDTSKNQFSLKLSSVTAADTAVYYCARFDVSLGGGSDTWGQGTLVTVSS
VL: SYELTQPPSVSVSPGQTASITCSGQRLGDKYASWYQQKPGQSPVLVIYEDSKRPSGIPERFSGSNSGDTATLTISGTQPMDEADYYCQAWDRDTGVFGYGTKVTVL
notes: also called DLL4-E9-19 hIgG1/L
As for B1, the concentration for half-maximal inhibition (IC50) was found to be 4.9 nM in assay [1], 0.44 nM in [2], 1.3 nM in [6] and 1.8 nM in assay [7]. Besides, the “Inhibition of Notch activation via huDLL4 cells, coculture (IC50, nM)” value (from here on “Inhibition … coculture (IC50, nM)”) in assay [3] worked out at 4.4 nM. Moreover, the Kd was found to be 3.07 nM in assay [4] and 0.69 nM in assay [5]. For the same molecule, the koff in assay [4] stood at 0.000206 s⁻¹; in [5], 5.17e-05 s⁻¹. Moreover, the kon in assay [4] is 67000 M⁻¹ s⁻¹; in assay [5], 74900 M⁻¹ s⁻¹. Besides, the EC50 in [8] amounted to 2.79 nM; in assay [9] it was 0.54 nM; in assay [10], 0.17 nM; in [11], 0.17 nM.

B2: E9.2B (antibody, V domains shown)
VH: B1 VH with S33N, Y54N, T56N, S58N, F100E, D101A, S103A, S108A, T110D
VL: B1 VL with Q25E, R26G, A32V, K52T, R92S, D93E, Y99S
Regarding B2, the IC50 in assay [1] is 2.63 nM; in [2] it was 0.34 nM; in assay [6] it was 2.8 nM; in assay [7], 2.3 nM. For the same molecule, the “Inhibition … coculture (IC50, nM)” value in assay [3] was 2.1 nM. In assay [5], binding was put at a Kd of 0.02 nM. This molecule showed a koff in assay [5] of 7.9e-06 s⁻¹. The kon in assay [5] worked out at 356000 M⁻¹ s⁻¹. The EC50 in assay [8] is 1.78 nM; in [9], 0.35 nM; in assay [10], 0.16 nM; in assay [11], 0.16 nM.

B3: E9.1 (antibody, human IgG1, V domains shown)
VH: B1 VH with F100E, S103I, G105R, T110Y
VL: SYELTQPPSVSVSPGQTASITCSGQRLGDKYASWYQQKPGQSPVLVIYEDSKRPSGIPERFSGSNSGDTATLTISGTQPMDEADYYCQAWDRDTGVFGYGTRVTVLG
In the case of B3, the EC50 in assay [12] was 0.34 nM; in [13], 0.29 nM; in assay [27], 0.04 nM; in [28], 0.03 nM. In addition, the Kd in [14] was 1.1 nM; in assay [15] it was 0.52 nM; in assay [16], 12.8 nM; in assay [17], 2.38 nM; in assay [22], 3.62 nM; in assay [23] it was 1.66 nM. Also, the values for the Kd in assay [26] and in assay [31] were 1.6 nM and 0.35 nM, respectively. In addition, the IC50 is 2.5 nM in assay [18]; 2.5 nM in assay [19]; 5.85 nM in assay [20]; 2.2 nM in [21]; 1.62 nM in assay [24]; 1.06 nM in assay [25]. Also, the IC50 in [29] was found to be 4.55 nM; in [30], 1.02 nM.

B4: E9.71 (antibody, V domains shown)
VH: B1 VH with F100Q, D101A, V102L, S103A, L104M, T110K
VL: B1 VL
notes: also called DLL4-E9-71 hIgG1/L
With B4, the IC50 in [1] was found to be 3.22 nM; in assay [2], 0.24 nM; in assay [6], 1.3 nM; in [7], 2 nM. In addition, the “Inhibition … coculture (IC50, nM)” value in [3] is 2.1 nM. Besides, the Kd in [4] was 6.08 nM; in assay [5], 0.91 nM. Further, the koff in [4] worked out at 0.000216 s⁻¹; in assay [5] it was 3.51e-05 s⁻¹. The kon was found to be 35500 M⁻¹ s⁻¹ in [4] and 38800 M⁻¹ s⁻¹ in assay [5]. Besides, the EC50 in assay [8] is 1.82 nM; in assay [9] it was 0.32 nM; in [10], 0.17 nM; in assay [11], 0.16 nM.

B5: A10 (antibody, IgG1, V domains shown)
VH: EVQLLESGGGLVKSGGSLRLSCAASGFTFRSHWMSWVRQAPGKGLEWVAIISYDGSNKYSADSVKGRFTISRDNSKNTLYLQLNSLRAEDTAVYYCAKAGGGNVGFDIWGQGTMVTVSS
VL: LPVLTQPPSVSVSPGQTASITCSADKLGTKYVSWYQQKPGQSPVLVIYQDAKRPSGIPERFSGSNSGNTATLTISGTQTMDEADYLCQSWDRSDVVFGGGTKVTVL
notes: also called anti-DLL4 PROfusion antibody A10
B5: the values for the EC50 in assay [32] and in assay [36] were 0.93 nM and 0.17 nM, respectively. In addition, the binding result in [33] and in assay [34] was “no binding (tested: 900 nM DLL4)” each time. In [35], binding was characterised by a dissociation constant (Kd) of 6.68 nM. For the same molecule, the koff in [35] turned out to be 0.00015 s⁻¹. In assay [35], this molecule showed a kon of 22000 M⁻¹ s⁻¹. For the same molecule, the IC50 in [37] came to 2.6 nM; in [40], 4.4 nM. The “Inhibition … coculture (IC50, nM)” value in [38] was found to be 7.3 nM. Further, the “sVEGFR1 Inhibition (IC50, nM) DLL4 ECD/EaHy cells, hu” value in assay [39] is 1.5 nM.

B6: E9-FR2 (antibody, V domains shown)
VH: EVTLRESGPALVKPTQTLTLTCTVSGGSISSSSYYWGWIRQPPGKGLEWIGDIYYTGSTYYNPSLKSRVTISVDTSKNQFVLTMTNMDPVDTATYYCAREDVILRGGSDYWGQGTTVTVSS
VL: DYVLTQSPDSLAVSLGERATINCSGQRLGDKYASWYQQKPGQSPKLVIYEDSKRPSGIPDRFSGSNSGDDATLTISSLQAEDVAVYYCQAWDRDTGVFGGGTKVEIKR
notes: full-length human IgG1
In the case of B6, the Kd in [14] came to 0.69 nM; in [15], 0.31 nM; in assay [22] it was 6.2 nM; in assay [23], 3.57 nM. Also, the IC50 in [20] was 4.35 nM; in assay [21], 1.52 nM; in assay [24], 3.03 nM; in assay [25] it was 1.07 nM. In addition, the results for the EC50 in assay [27] and in assay [28] were 0.125 nM and 0.105 nM, respectively.
